In the supplement of paper PMC9170038:

Tested on: K4 kissing-loop RNA reporter
Assay: apparent KD of K4 kissing-loop reporter; higher = weaker reporter binding
Settings: Eterna round: R107
Method: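 RNA-MaP round R107: designed RNA switches with theophylline, tryptophan, arginine or FMN aptamers are transcribed on-chip within common flanks. They are titrated with a labelled K4 kissing-loop RNA reporter in RNA-MaP buffer (100 mM Tris pH 7.5, 80 mM KCl, 4 mM MgCl2), without ligand or with the indicated ligand. Median apparent KD per design.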

[1] = input ligand: theophylline 20 uM
[2] = input ligand: tryptophan 2.4 mM
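Note: bound reporter read as fluorescence of individual clusters on recovered sequencing chips by microscopy, with normalized cluster intensities fitted with a binding model.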

Sequence	apparent KD of K4 kissing-loop reporter (input ligand: FMN 200 uM)	apparent KD of K4 kissing-loop reporter (input ligand: arginine 13.2 mM)	apparent KD of K4 kissing-loop reporter (input ligand: none)	apparent KD of K4 kissing-loop reporter [1]	apparent KD of K4 kissing-loop reporter [2]
AUUUAAUGUAUAGAUUAUAUACAUUAUUCAGAGGAUAUGCUUUGAAGCAGAAGGCUGGAUGUAGUGAUGUUGCAAUUUUAAUUUA [JR_SSFMNA_Sub006]	214 nM	265 nM	236 nM	250 nM	163 nM
AUUUAAUUAACUGAUACCAGACUUUUUGUUUUGAUAAUUACUAGUGAUGUUAGUGUUUCUGUCCCUUGGCAGCAGUAUCUACUUA [JR_ExcTheophyB_Sub017]	121 nM	177 nM	122 nM	209 nM	106 nM
AUUUAGACGAGUGAUGUUCGUGAUAUUACAGAGGAUAUGCUUAAAAGCAGAAGGCUGUAUUUAUAUUUGUUAUGUAAUUUUAAAA [JR_ExcFMNA_Sub005]	79.9 nM	95.4 nM	78 nM	95.5 nM	62.7 nM
AUUUUGGUUUAGAGUGAUGUUCCUUGUAUUCGAGGACCGGUACGGCCGCCACUCGAAUAGAAAAGAAAAGAAAUGUUUGAUGUUU [BDazzled - #6 SS Tryptophan A]	551 nM	193 nM	537 nM	274 nM	393 nM
CACGAUGAAUUCUCUAGGAGUGAUGUUUUUCGAGGACCGGUACGGCCGCCACUCGGACGACGAGUGUGGUAGCGGGCUGAAGACU [zgullin]	429 nM	262 nM	643 nM	239 nM	561 nM
CACUGGGCGAGUGAUGUUCGCUCACGUGAUACCAGUGCCAUCCAACACCCUUGGCAGCAUGCGGGCAGUGAUGUUGUCCAAAGAA [Exclusion Theophylline A GF9]	204 nM	187 nM	207 nM	208 nM	184 nM
CAGAUCACAGAGUGAUGUUCUGUGUCCGAAGGAGCGCGCGAGAGCGCAGGUAGGUCGCGGAUACAGUUGACGUACCAUCUAGACA [Arg A Ex t3b]	306 nM	244 nM	278 nM	246 nM	269 nM
CAGCCCAAAUGGCGAGAAGUGUUCCUUAGUCGAGGACCGGUACGGCCGCCACUCGCUCUAAACAUUAGGAGUGAUGUUCCAUUAG	168 nM	258 nM	215 nM	335 nM	90.6 nM
CAUACGCAUGGAGGAUAUGAGAUUACUCAUGUCAUUUAAUAUUCUCAGUGAUGUUGAGAUUUAGGCUCAGAAGGCCAUGUGUAUG [Ex FMN B 17]	355 nM	514 nM	630 nM	534 nM	525 nM
CAUACGCAUGGAGGAUAUGAGAUUUCUCAUAUUAUUUAAUAUUCUCAGUGAUGUUGAGAUAUAAACUCAGAAGGCCAUGUGUAUG [Ex FMN B 2]	340 nM	198 nM	196 nM	245 nM	215 nM
CAUAGGAAACUAUGUAUCUCUCUUACUGAAGGAGCGCGUGAAAACGCAGGUAGGUCGCAGAAUUUAAAAGAGAGUGAUGUUCUCU [Ex Arginine A K4 8]	358 nM	253 nM	332 nM	247 nM	301 nM
CAUCUGGACCAAGGAUAUGUGGGCAUAAUAAAAUUACCACCUUAUUUGCAGUAAGUGAUGUUUAACACAGAAGGUGGACAUAGAC [theeternabot_exclusion_KL_FMN_B_10]	1170 nM	725 nM	1170 nM	701 nM	822 nM
CAUGAGUGAUGUUCGUGCGCUUGGUCGAAGCGAGGACCGGUACGGCCGCCACUCGCUAUGGCGGCAUCUACCAGUGAUGUUGGUG [Same State Tryptophan A GF 2]	241 nM	171 nM	228 nM	202 nM	208 nM
CCAGGACGAUGAGGAGGAUGAAUUACUGAAGGAGCGCAUAUGGUUGCAGGUAGGUCGCGGUGAACAAGUAUAGUGAUGUUAUAUC [SSArgA.S]	365 nM	971 nM	538 nM	321 nM	321 nM
CCAGGACGAUGAGGAUGAUGAAUUACUGAAGGAGCGCAUAUGGUUGCAGGUAGGUCGCGGUGAACAAGUAUAGUGAUGUUAUACC [SSArgA.U]	327 nM	282 nM	340 nM	515 nM	348 nM
CCAUCGCUAUUCGAUACCAGCUCCUUAGUGAUGUUAAGGUUUUACCCUCUGUAGGAGGGAAGCCCUUGGCAGCGAGUAGUGAUGG [#03 K4 Theophylline B Same State]	1270 nM	802 nM	948 nM	623 nM	1370 nM

Sequence	apparent KD of K4 kissing-loop reporter (input ligand: FMN 200 uM)	apparent KD of K4 kissing-loop reporter (input ligand: arginine 13.2 mM)	apparent KD of K4 kissing-loop reporter (input ligand: none)	apparent KD of K4 kissing-loop reporter [1]	apparent KD of K4 kissing-loop reporter [2]
CCAUCGCUAUUCGAUACCAGUCAUUAAAUCUUUGGUUUAAUAAAGGAGUGAUGUUCCCAAGACCCUUGGCAGCGAAUAGUGAUGG [Theophylline B K4 9]	213 nM	183 nM	198 nM	166 nM	207 nM
CCAUCGCUGUUCGAUACCAGUCAUUUUUUAUUUUAUUUUUUUUUUGGAGUGAUGUUCCAAGACCCUUGGCAGCGGAUAGUGAUGG [whbob_SS_Theo_B_th80]	116 nM	143 nM	114 nM	145 nM	111 nM
CCAUUCUUUUACGAUACCAGUUUAAUAUAUUUAUUCAAAACCCUUGCCGAGUGAUGUUCGGACCCUUGGCAGCGUUUGCGAGAGG [ttedstkmullin]	455 nM	376 nM	465 nM	434 nM	356 nM
CCCAAGGGCCUACCGGUAUUAUUAACGGAUACCAGAGGCGAAAGCCUCCCUUGGCAGCCGGGUGUAGUGAUGUUACUCCGGUAGU	83.4 nM	64.7 nM	70.2 nM	63.2 nM	78.1 nM
CCCUCACGAGUGAUGUUCGUAGGGUACAGUCAGGAUAUCAUGCGGUUGAGAAGGGACAGAGAGGGCGGCCACGGGUUGCUCCUCU [Lariusteza]	183 nM	259 nM	386 nM	345 nM	305 nM
CCGAUACAUUAUUCUACGGCCGAGAGUGAUACCAGCCGUAUUUGUGGCCCUUGGCAGCGCAGAUGCAGUGAUGUUGCAUACUUGU [Same State Theophylline A GF 20]	68.7 nM	93.7 nM	78.1 nM	96.6 nM	63.5 nM
CCGCCAUCAUCAGAUACCAGACUGAUGGCGGUAACCGCCAAGCGAGUGAUGUUCGCAUCAGUCCCUUGGCAGCUGAUGAAGACUG [Theo B SS t4]	255 nM	82.4 nM	110 nM	104 nM	154 nM
CCGGCCCAGCCGGAUACCAGUGCGCCGCAGGGAACGGCGGGCCCAGAGUGAUGUUCGGGACACCCUUGGCAGCCGCCUGGGUCGU [#2 Same State - Theophylline B Attempt #28 (HarryS)]	414 nM	262 nM	365 nM	258 nM	274 nM
CCGUGGAGUGAUGUUCCACGUUCUACGGAUACCAGCUUUGCCAAAGGCCCUUGGCAGCCGCACCUUGCAGUGAUGUUGUGAGGCU [Same State Theophylline A Gf7]	329 nM	268 nM	305 nM	302 nM	274 nM
CCGUGGAGUGAUGUUCCACGUUCUACGGAUACCAGUUGUGCCAGCGGCCCUUGGCAGCCGCACCUUGCAGUGAUGUUGUGAGGCU [Same State Theophylline A Gf 6]	238 nM	210 nM	225 nM	229 nM	198 nM
CCUAUCUCAUACGAUACCAGUCAAUGAUCUUUGAUCAAUGCCAUCACCGAGUGAUGUUCGGACCCUUGGCAGCGUAUGAGAUAGG [whbob_Ex_Theo_B_sa103]	277 nM	225 nM	267 nM	452 nM	247 nM
CCUAUCUCGUACGAUACCAGUCAAUGAUCUUUGAUCAAUGCCAUCACCGAGUGAUGUUCGGACCCUUGGCAGCGUAUGAGAUGGG [whbob_Ex_Theo_B_sa105]	272 nM	207 nM	251 nM	386 nM	242 nM
CCUAUCUCUUACGAUACCAGUCAAUGAUAUUUUAUCAAUGCCCUCACCGAGUGAUGUUCGGACCCUUGGCAGCGUAUGGGAUAGG [kjnjmullin]	241 nM	162 nM	212 nM	175 nM	188 nM
CCUGCAGCUGUUACCGAGGGAUGCUACGGACGAGGACCGGUACGGCCGCCACUCGCCAGUGAUGUUGGUGAGGGAGGACGUUCCU [Georte]	100 nM	106 nM	150 nM	172 nM	148 nM
CCUUCUCAUUUCCGUUAUCAUUGCCUUAGGAAGGAUAUCAUUAUUUUGAGAAGGUCCGUGGUCUAUUUUCCGAGUGAUGUUUGGU [theeternabot_exclusion_KL_FMN_A_45]	273 nM	226 nM	311 nM	277 nM	248 nM
CCUUGGAUUAGCUGUACUUUUCUACGGGAUACCAGUGCGUAACACCACCCUUGGCAGCCCGAUUACCGGCAGUGAUGUUGCCUCU [theeternabot_sameState_KL_Theo_A_41]	185 nM	282 nM	244 nM	245 nM	192 nM
